Assay results from patent US20130022541A1.

Tests used:
[1] = target: HLA-DR; assay: flow cytometry, permeabilized (cytoplasmic), Moser cells
[2] = target: HLA-DR; assay: flow cytometry, surface, RL cells
[3] = target: HLA-DR; assay: flow cytometry, permeabilized (cytoplasmic), Panc-1 cells + IFN-γ
[4] = target: HLA-DR; assay: flow cytometry, surface, Moser cells
[5] = target: HLA-DR; assay: flow cytometry, surface, TU118 cells
[6] = target: HLA-DR; assay: flow cytometry, surface, Lovo cells
[7] = target: HLA-DR; assay: flow cytometry, surface, HT29 cells + IFN-γ
[8] = target: HLA-DR; assay: flow cytometry, surface, U87 cells
[9] = target: HLA-DR; assay: flow cytometry, surface, Lovo cells + IFN-γ
[10] = target: HLA-DR; assay: flow cytometry, permeabilized (cytoplasmic), CAG cells
[11] = target: HLA-DR; assay: flow cytometry, permeabilized (cytoplasmic), RL cells
[12] = target: HLA-DR; assay: flow cytometry, permeabilized (cytoplasmic), RL cells + IFN-γ
[13] = target: HLA-DR; assay: flow cytometry, surface, RL cells + IFN-γ
[14] = target: HLA-DR; assay: flow cytometry, surface, Aspc-1 cells + IFN-γ
[15] = target: HLA-DR; assay: flow cytometry, permeabilized (cytoplasmic), FSCCL cells + IFN-γ
[16] = target: HLA-DR; assay: flow cytometry, permeabilized (cytoplasmic), KMS11 cells + IFN-γ
[17] = target: HLA-DR; assay: flow cytometry, surface, Aspc-1 cells
[18] = target: HLA-DR; assay: flow cytometry, permeabilized (cytoplasmic), Panc-1 cells
[19] = target: HLA-DR; assay: flow cytometry, permeabilized (cytoplasmic), Moser cells + IFN-γ
[20] = target: HLA-DR; assay: flow cytometry, surface, BxPC-3 cells
[21] = target: HLA-DR; assay: flow cytometry, permeabilized (cytoplasmic), KMS11 cells
[22] = target: HLA-DR; assay: flow cytometry, surface, LS174T cells + IFN-γ
[23] = target: HLA-DR; assay: flow cytometry, permeabilized (cytoplasmic), Aspc-1 cells + IFN-γ
[24] = target: HLA-DR; assay: flow cytometry, surface, KMS11 cells
[25] = target: HLA-DR; assay: flow cytometry, permeabilized (cytoplasmic), CAG cells + IFN-γ
[26] = target: HLA-DR; assay: flow cytometry, surface, HT29 cells
[27] = target: HLA-DR; assay: flow cytometry, permeabilized (cytoplasmic), Capan cells + IFN-γ
[28] = target: HLA-DR; assay: flow cytometry, surface, LS174T cells
[29] = target: HLA-DR; assay: flow cytometry, permeabilized (cytoplasmic), Aspc-1 cells
[30] = target: HLA-DR; assay: flow cytometry, surface, U118 cells
[31] = target: HLA-DR; assay: flow cytometry, permeabilized (cytoplasmic), Lovo cells
[32] = target: HLA-DR; assay: flow cytometry, permeabilized (cytoplasmic), LS174T cells
[33] = target: HLA-DR; assay: flow cytometry, permeabilized (cytoplasmic), TU118 cells
[34] = target: HLA-DR; assay: flow cytometry, surface, U118 cells + IFN-γ
[35] = target: HLA-DR; assay: flow cytometry, permeabilized (cytoplasmic), BxPC-3 cells
[36] = target: HLA-DR; assay: flow cytometry, surface, U87 cells + IFN-γ
[37] = target: HLA-DR; assay: flow cytometry, surface, FSCCL cells
[38] = target: HLA-DR; assay: flow cytometry, permeabilized (cytoplasmic), U118 cells
[39] = target: HLA-DR; assay: flow cytometry, permeabilized (cytoplasmic), LS174T cells + IFN-γ
[40] = target: HLA-DR; assay: flow cytometry, permeabilized (cytoplasmic), Lovo cells + IFN-γ
[41] = target: HLA-DR; assay: flow cytometry, permeabilized (cytoplasmic), BxPC-3 cells + IFN-γ
[42] = target: HLA-DR; assay: flow cytometry, permeabilized (cytoplasmic), U87 cells + IFN-γ
[43] = target: HLA-DR; assay: flow cytometry, surface, Capan cells + IFN-γ
[44] = target: HLA-DR; assay: flow cytometry, surface, KMS11 cells + IFN-γ
[45] = target: HLA-DR; assay: flow cytometry, permeabilized (cytoplasmic), HT29 cells + IFN-γ
[46] = target: HLA-DR; assay: flow cytometry, surface, FSCCL cells + IFN-γ
[47] = target: HLA-DR; assay: flow cytometry, permeabilized (cytoplasmic), Capan-1 cells
[48] = target: HLA-DR; assay: flow cytometry, surface, Capan-1 cells
[49] = target: HLA-DR; assay: flow cytometry, permeabilized (cytoplasmic), HT29 cells
[50] = target: HLA-DR; assay: flow cytometry, surface, CAG cells
[51] = target: HLA-DR; assay: flow cytometry, surface, CAG cells + IFN-γ
[52] = target: HLA-DR; assay: flow cytometry, surface, Panc-1 cells
[53] = target: HLA-DR; assay: flow cytometry, permeabilized (cytoplasmic), U118 cells + IFN-γ
[54] = target: HLA-DR; assay: flow cytometry, surface, Panc-1 cells + IFN-γ
[55] = target: HLA-DR; assay: flow cytometry, surface, TU118 cells + IFN-γ
[56] = target: HLA-DR; assay: flow cytometry, permeabilized (cytoplasmic), U87 cells
[57] = target: HLA-DR; assay: flow cytometry, permeabilized (cytoplasmic), FSCCL cells
[58] = target: HLA-DR; assay: flow cytometry, surface, Moser cells + IFN-γ
[59] = target: HLA-DR; assay: flow cytometry, surface, BxPC-3 cells + IFN-γ
[60] = target: HLA-DR; assay: flow cytometry, permeabilized (cytoplasmic), TU118 cells + IFN-γ

B1: hL243γ4P (anti-HLA-DR) (antibody, from a related filing, V domains shown)
VH: QVQLQQSGSELKKPGASVKVSCKASGFTFTNYGMNWVKQAPGQGLKWMGWINTYTREPTYADDFKGRFAFSLDTSVSTAYLQISSLKADDTAVYFCARDITAVVPTGFDYWGQGSLVTVSS
VL: DIQLTQSPSSLSASVGDRVTITCRASENIYSNLAWYRQKPGKAPKLLVFAASNLADGVPSRFSGSGSGTDYTFTISSLQPEDIATYYCQHFWTTPWAFGGGTKLQIKR
Q: For B1, which flow cytometry fluorescence [1] is on record?
A: 18.2

Q: What about the flow cytometry fluorescence [2] of the same binder?
A: 750

Q: And the flow cytometry fluorescence [3]?
A: 64.1

Q: What about the flow cytometry fluorescence [4] of the same binder?
A: 4

Q: What about the flow cytometry fluorescence [5] of the same binder?
A: 5.08

Q: And the flow cytometry fluorescence [6]?
A: 7.3

Q: What about the flow cytometry fluorescence [7] of the same binder?
A: 298

Q: What about the flow cytometry fluorescence [8] of the same binder?
A: 41.9

Q: What about the flow cytometry fluorescence [9] of the same binder?
A: 276

Q: And the flow cytometry fluorescence [10]?
A: 2320

Q: What about the flow cytometry fluorescence [11] of the same binder?
A: 1060

Q: And the flow cytometry fluorescence [12]?
A: 1180

Q: And the flow cytometry fluorescence [13]?
A: 862

Q: What about the flow cytometry fluorescence [14] of the same binder?
A: 15.2

Q: And the flow cytometry fluorescence [15]?
A: 2520

Q: What about the flow cytometry fluorescence [16] of the same binder?
A: 927

Q: What about the flow cytometry fluorescence [17] of the same binder?
A: 3.2

Q: And the flow cytometry fluorescence [18]?
A: 22.7

Q: And the flow cytometry fluorescence [19]?
A: 40.5

Q: What about the flow cytometry fluorescence [20] of the same binder?
A: 2.3

Q: And the flow cytometry fluorescence [21]?
A: 879

Q: What about the flow cytometry fluorescence [22] of the same binder?
A: 4.7

Q: What about the flow cytometry fluorescence [23] of the same binder?
A: 73.6

Q: What about the flow cytometry fluorescence [24] of the same binder?
A: 677

Q: What about the flow cytometry fluorescence [25] of the same binder?
A: 2420

Q: And the flow cytometry fluorescence [26]?
A: 3.3

Q: And the flow cytometry fluorescence [27]?
A: 253

Q: What about the flow cytometry fluorescence [28] of the same binder?
A: 5.3

Q: And the flow cytometry fluorescence [29]?
A: 11

Q: What about the flow cytometry fluorescence [30] of the same binder?
A: 6.1

Q: And the flow cytometry fluorescence [31]?
A: 32.5

Q: And the flow cytometry fluorescence [32]?
A: 23.4

Q: What about the flow cytometry fluorescence [33] of the same binder?
A: 23.6

Q: And the flow cytometry fluorescence [34]?
A: 197

Q: And the flow cytometry fluorescence [35]?
A: 14.2

Q: What about the flow cytometry fluorescence [36] of the same binder?
A: 172

Q: And the flow cytometry fluorescence [37]?
A: 1090

Q: What about the flow cytometry fluorescence [38] of the same binder?
A: 24.6

Q: What about the flow cytometry fluorescence [39] of the same binder?
A: 42.3

Q: What about the flow cytometry fluorescence [40] of the same binder?
A: 989

Q: And the flow cytometry fluorescence [41]?
A: 130

Q: What about the flow cytometry fluorescence [42] of the same binder?
A: 429

Q: And the flow cytometry fluorescence [43]?
A: 66.2

Q: What about the flow cytometry fluorescence [44] of the same binder?
A: 665

Q: And the flow cytometry fluorescence [45]?
A: 638

Q: What about the flow cytometry fluorescence [46] of the same binder?
A: 1610

Q: What about the flow cytometry fluorescence [47] of the same binder?
A: 11.6

Q: What about the flow cytometry fluorescence [48] of the same binder?
A: 5.5

Q: And the flow cytometry fluorescence [49]?
A: 9.1

Q: And the flow cytometry fluorescence [50]?
A: 1930

Q: What about the flow cytometry fluorescence [51] of the same binder?
A: 1810

Q: And the flow cytometry fluorescence [52]?
A: 4.3

Q: What about the flow cytometry fluorescence [53] of the same binder?
A: 352

Q: What about the flow cytometry fluorescence [54] of the same binder?
A: 4.7

Q: And the flow cytometry fluorescence [55]?
A: 93.5

Q: What about the flow cytometry fluorescence [56] of the same binder?
A: 102

Q: And the flow cytometry fluorescence [57]?
A: 1470

Q: What about the flow cytometry fluorescence [58] of the same binder?
A: 8.5

Q: What about the flow cytometry fluorescence [59] of the same binder?
A: 43.8

Q: What about the flow cytometry fluorescence [60] of the same binder?
A: 215
